Source: US20220025032A1 (Novartis, published 2022)
Like-named read-outs stand apart in the source and are kept apart here.

T1: Human BTC (human, UniProt P35070 32-111)
T1 construct: Soluble human BTC of the Biacore, ELISA, MSD and cell assays; also called human betacellulin; soluble human BTC
T1 sequence: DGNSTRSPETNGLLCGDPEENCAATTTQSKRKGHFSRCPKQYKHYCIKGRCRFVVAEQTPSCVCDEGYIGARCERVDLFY

T2: Human BTC-avitag-biotin (human, UniProt P35070 32-111, biotin on the avitag)
T2 construct: also called biotin-BTC; soluble human BTC-avitag-biotin
T2 sequence: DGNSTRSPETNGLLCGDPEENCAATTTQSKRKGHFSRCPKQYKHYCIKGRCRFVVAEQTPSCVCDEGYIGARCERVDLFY

T3: Rat BTC (rat, UniProt Q9JJM4 32-111)
T3 sequence: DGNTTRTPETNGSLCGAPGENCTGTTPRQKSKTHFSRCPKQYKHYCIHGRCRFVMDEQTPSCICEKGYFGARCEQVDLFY

T4: Rabbit BTC (rabbit, UniProt G1SJ89 32-111)
T4 sequence: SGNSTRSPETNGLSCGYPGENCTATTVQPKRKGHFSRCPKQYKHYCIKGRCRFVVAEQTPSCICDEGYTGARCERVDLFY

T5: Mouse BTC (mouse, UniProt Q05928 32-111, limits assumed)
T5 sequence (looked up): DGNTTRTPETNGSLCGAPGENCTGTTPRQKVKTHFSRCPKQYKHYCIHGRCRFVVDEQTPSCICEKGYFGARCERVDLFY

T6: Cyno BTC (cynomolgus, UniProt A0A2K5X5E5 32-111)
T6 construct: also called cynomolgus BTC
T6 sequence: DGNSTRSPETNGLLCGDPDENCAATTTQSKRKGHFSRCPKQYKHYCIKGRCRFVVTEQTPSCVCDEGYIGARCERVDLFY

T7: membrane-bound human BTC on 293F-hBTC cells (human, UniProt P35070 32-111)
T7 sequence: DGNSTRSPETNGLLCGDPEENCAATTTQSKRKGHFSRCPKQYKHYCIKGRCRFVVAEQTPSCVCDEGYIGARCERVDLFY


Assays:
Human BTC [1] = target: T1, Human BTC; assay: cell-based inhibition of BTC binding to ErbB1
Human BTC [2] = target: T1, Human BTC; assay: SPR Biacore T200, anti-Fab capture, antigen as analyte
Human BTC-avitag-biotin [3] = target: T2, Human BTC-avitag-biotin; assay: flow cytometry: inhibition of biotin-BTC binding to HKB11 cells over-expressing ErbB4; y axis Fluorescent Intensity
Procedure: (§1) In order to assess potency of the Fabs and bispecific in neutralizing binding of BTC to its receptor Erb 1 or ErbB4, the following assay was performed. HKB11 over-expressing either ErbB1 or ErbB4 cells were plated 1×10⁵ cells/well. Cells were washed once with FACS buffer by spun down at 1200 rpm for 5 minutes and supernatant removed. Next, the Fab sample dilutions and BTC were prepared in FACS buffer. Human BTC-avitag-biotin was diluted to a fixed concentration of 15 nM. The test Fab samples were prepared at a starting concentration of 40 nM and titrated for 9 points at a serial dilution of 1:2. Both biotin-BTC and the test Fab samples are incubated for 30 minutes at room temperature. The pre-incubated samples were then added to the cell plate at 100 μl per well in duplicate and incubated for 1 hour on ice. The plate was then washed once in FACS buffer and spun down at 1200 rpm for 5 minutes and supernatant removed. After suspending the cell pellet with 100 μl/well of diluted secondary antibody streptavidin-Alexa Fluor488 (1:2000) in FACS buffer, the cells were then incubated for 60 min on ice. The cells were washed once with FACS buffer and re-suspended in 120 μl of FACS buffer for flow cytometric analysis.
(§2) Measurements were performed on Attune Flow Cytometry machine. Data were analysed using the Flow Jo software. The live cell populations analysed were gated in forward and side scattering (FSC-A/SSC-A dot plot). The interval gate was established on the control histogram, which was obtained with sample incubated in streptavidin-Alexa Fluor488 only, and subsequently, determined percent of positive binding events of cells carrying membrane-bound receptor ErbB1 or ErbB4 and biotin-BTC. The median of fluorescence intensity (MFI) value was also derived for the live cell population. MFI values were then used to calculate for percent inhibition of test sample and subsequently plotted in GraphPad Prism 7.03 using nonlinear regression (curve fit) model to generate IC50 value.

Rat BTC = target: T3, Rat BTC; assay: SPR (Biacore/ProteOn)
Rabbit BTC = target: T4, Rabbit BTC; assay: SPR (Biacore/ProteOn)
Human BTC [4] = target: T1, Human BTC; assay: SPR (Biacore/ProteOn)
Mouse BTC = target: T5, Mouse BTC; assay: SPR (Biacore/ProteOn)
Cyno BTC = target: T6, Cyno BTC; assay: SPR (Biacore/ProteOn)
Human BTC-avitag-biotin [5] = target: T2, Human BTC-avitag-biotin; assay: flow cytometry: inhibition of biotin-BTC binding to HKB11 cells over-expressing ErbB1; y axis Fluorescent Intensity
Procedure: as §1, §2

Human VEGF165 = target: T8, Human VEGF165 (human, UniProt P15692 27-191); assay: SPR Biacore T200, anti-Fab capture
T8 construct: mature; biotinylated in the VEGFR2 ELISAs; also called human VEGF-A; VEGF-A
T8 sequence (P15692 other isoform, or with tags, fused parts or gaps): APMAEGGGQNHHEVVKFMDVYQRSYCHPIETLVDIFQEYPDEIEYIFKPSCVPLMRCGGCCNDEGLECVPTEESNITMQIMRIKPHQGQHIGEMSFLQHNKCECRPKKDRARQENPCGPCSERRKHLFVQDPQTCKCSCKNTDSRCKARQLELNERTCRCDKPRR

Human BTC [6] = target: T1, Human BTC; assay: cell-based or functional assay
[7] = target: T7, membrane-bound human BTC on 293F-hBTC …; assay: cell-based or functional assay
Human BTC [8] = target: T1, Human BTC; assay: cell-based inhibition of BTC binding to ErbB4
Human BTC [9] = target: T1, Human BTC; assay: MSD-based inhibition of BTC binding to ErbB1
[10] = target: T7, membrane-bound human BTC on 293F-hBTC …; assay: flow cytometry, 293F cells with BTC against 293F
Human BTC [11] = target: T1, Human BTC; assay: MSD-based inhibition of BTC binding to ErbB4
[12] = target: T7, membrane-bound human BTC on 293F-hBTC …; assay: flow cytometry on 293F cells with membrane-bound human BTC; y axis % Pos Binding
Procedure: (§3) After washing the cells, the cells were dissociated using Versene at 37° C. The cells were washed with FACS buffer and plated at 100 μl in a 96 well plate using cells at 1×10⁶ cells/ml. Then 100 μl of a serial dilution of antibodies starting at 50 nM was used. The cells were incubated, washed and then treated with the secondary anti-human Fab-FITC antibody. The antibodies only bound to the cells expressing BTC. After which the cells were washed and analyzed on the Attune Flow Cytometry. All data analysis was carried out using Flow Jo software.
In FIG. 6A, Flow cytometry was used to assess the binding of NVS11 to membrane-bound BTC using an anti-human Fab antibody for detection.

[13] = target: T7, membrane-bound human BTC on 293F-hBTC …; assay: as above; remark: listed apart in the source
Procedure: as §3

| Binder | Cell-based binding inhibition BTC/ErbB1 (Human BTC [1]) | Kd (Human BTC [2]) | IC50 (Human BTC-avitag-biotin [3]) | Kd (Rat BTC) | Kd (Rabbit BTC) | Kd (Human BTC [4]) | Kd (Mouse BTC) | Kd (Cyno BTC) | IC50 (Human BTC-avitag-biotin [5]) | binding result (Human VEGF165) | A431 pERK (IC50 in nM) (Human BTC [6]) | ADR/Res pErbB3 (IC50 in nM) (Human BTC [6]) | inhibition (Human BTC [6]) | Neutralization of juxtacrine signaling [7] | Cell-based binding inhibition BTC/ErbB4 (Human BTC [8]) | MSD-based binding inhibition BTC/ErbB1 (Human BTC [9]) | Binding to membrane-anchored BTC (median, X above 293F) [10] | MSD-based binding inhibition BTC/ErbB4 (Human BTC [11]) | EC50 [12] | also measured |
| --- | --- | --- | --- | --- | --- | --- | --- | --- | --- | --- | --- | --- | --- | --- | --- | --- | --- | --- | --- | --- |
| NVS2 (Fab, V domains shown, also called Fab NVS2; anti-BTC Fab) VH: not shown VL: SYELTQPPSVSVSPGQTASITCSGDKLGDKYAYWYQQKPGQSPVLVIYQDSKRPSGIPERFSGSNSGNTATLTISGTQAEDEADYYCQAFDYLYSLGVFGGGTKLTVLG | > 90% | 4.7 pM | 1.83 nM | 0.021 nM | 5 pM | 14 pM | 9 pM | 0.016 nM | 1.73 nM | no binding | 0.37 nM | 6.3 nM | 99.7% | 90% | > 90% | > 90% | > 10 X above 293F | > 90% | 0.256 nM | – |
| NVS4 (Fab, V domains shown, also called NVS4 Fab; Fab NVS4) VH: QVQLLESGGGLVQPGGSLRLSCAASGFTFSRYWISWVRQAPGKGLEWVSYIDSTGTFINYADSVKGRFTISRDNSKNTLYLQMNSLRAEDTAVYYCARGGSLFDYWGQGTLVTVSS VL: DIQMTQSPSSLSASVGDRVTITCRASQGIISYLGWYQQKPGKAPKLLIYAASSLQSGVPSRFSGSGSGTDFTLTISSLQPEDFATYYCQQYDALNTFGQGTKVEIKR | > 90% | 4.3 pM | 1.8 nM | 0.008 nM | 1 pM | 5 pM | 5 pM | 0.012 nM | 1.61 nM | – | 0.49 nM | 6.1 nM | 99.4% | 87% | > 90% | > 90% | > 10 X above 293F | > 90% | – | EC50 [13]: 0.238 nM |
| NVS3 (Fab, V domains shown, also called Fab NVS3; anti-BTC Fab) VH: QVQLLESGGGLVQPGGSLRLSCAASGFTFSSYAMSWVRQAPGKGLEWVSGLGHVGYTTYTDSVKGRFTISRDNSKNTLYLQMNSLRAEDTAVYYCARDYLDFGYYFDVWGQGTLVTVSS VL: SYELTQPLSVSVALGQTARITCSGDKIGKKYVHWYQQKPGQAPVLVIYDDSDRPSGIPERFSGSNSGNTATLTISRAQAGDEADYYCQAWDMQSVVFGGGTKLTVLG | > 90% | 4.4 pM | 2.04 nM | 0.02 nM | 17 pM | 1.4 pM | < 1 pM | 0.0054 nM | 1.81 nM | no binding | – | 7.89 nM | – | 99% | > 90% | > 90% | > 10 X above 293F | > 90% | 0.322 nM | A431 pERK (column head: IC50 in nM; cell printed as percent) (Human BTC [6]): > 90% |
